According to article PMC5389741 (Molecular cell, 2017):
Where a chain is given by its changes, count along the chain named. In names and notes the source's numbering stands. Values belong to the binder of their own block, whether it stands above or below them.

How the values were obtained:
GST-Beclin1 = GST-Beclin1 (human, UniProt Q14457 1-450); experiment: pull-down
[1] = biological target: T1, His-PGK1 (wild type, not acetylated) (human, UniProt P00558 1-417); experiment: pull-down
T1 sequence: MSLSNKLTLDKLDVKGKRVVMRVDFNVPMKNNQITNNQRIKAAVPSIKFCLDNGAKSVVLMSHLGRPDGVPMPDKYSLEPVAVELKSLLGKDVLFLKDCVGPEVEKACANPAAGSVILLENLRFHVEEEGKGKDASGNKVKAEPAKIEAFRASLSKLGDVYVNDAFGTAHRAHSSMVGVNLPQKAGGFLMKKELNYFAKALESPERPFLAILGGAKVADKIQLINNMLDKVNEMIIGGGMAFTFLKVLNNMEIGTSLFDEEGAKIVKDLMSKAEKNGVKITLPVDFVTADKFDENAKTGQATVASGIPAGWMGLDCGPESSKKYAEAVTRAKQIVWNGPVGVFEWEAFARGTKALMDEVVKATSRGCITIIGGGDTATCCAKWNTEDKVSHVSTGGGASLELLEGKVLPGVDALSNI

Sequence of GST-Beclin1 (Q14457 whole entry): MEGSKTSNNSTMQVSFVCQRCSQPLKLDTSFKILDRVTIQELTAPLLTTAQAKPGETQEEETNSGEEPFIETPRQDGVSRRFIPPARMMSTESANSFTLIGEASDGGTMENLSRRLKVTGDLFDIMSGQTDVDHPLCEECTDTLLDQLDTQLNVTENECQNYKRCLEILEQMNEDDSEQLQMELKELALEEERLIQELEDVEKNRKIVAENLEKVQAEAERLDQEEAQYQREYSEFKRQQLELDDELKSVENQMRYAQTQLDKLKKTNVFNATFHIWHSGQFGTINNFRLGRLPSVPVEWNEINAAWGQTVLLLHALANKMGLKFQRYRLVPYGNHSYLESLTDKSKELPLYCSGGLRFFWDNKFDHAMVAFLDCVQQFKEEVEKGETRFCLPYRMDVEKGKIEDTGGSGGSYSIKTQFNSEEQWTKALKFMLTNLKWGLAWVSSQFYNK

binding result (GST-Beclin1): binds
B1: His-PGK1 acetylated by Flag-ARD1 and Ac-CoA in vitro (enzyme, human)
chain: T1 sequence
modifications: acetyl-lysine at K388 (by ARD1 in vitro)

binding result [1]: binds
B2: GST-ARD1 (wild type) (enzyme, human, UniProt P41227 1-235, looked up)
chain: MNIRNARPEDLMNMQHCNLLCLPENYQMKYYFYHGLSWPQLSYIAEDENGKIVGYVLAKMEEDPDDVPHGHITSLAVKRSHRRLGLAQKLMDQASRAMIENFNAKYVSLHVRKSNRAALHLYSNTLNFQISEVEPKYYADGEDAYAMKRDLTQMADELRRHLELKEKGRHVVLGAIENKVESKGNSPPSSGEACREEKGLAAEDSGGDSKDLSEVSETTESTDVKDSSEASDSAS

binding result [1]: binds
B3: GST-ARD1 S228A (enzyme, human, UniProt P41227 1-235, looked up)
chain: B2 chain with S228A
